The chains are these.
B1: mature activin A (disulfide-linked dimer of the mature domain of inhibin βA) (ligand, human, UniProt P08476 311-426, looked up)
chain: GLECDGKVNICCKKQFFVSFKDIGWNDWIIAPSGYHANYCEGECPSHIAGTSGSSLSFHSTVINHYRMRGHSPFANLKSCCVPTKLRPMSMLYYDDGQNIIKKDIQNMIVEECGCS
notes: human inhibin βA chain (Uniprot P08476), mature domain, up to residue 426; residues marked m (Asp27m) count on the mature domain. numbers count on: the mature protein; Residues of the HRV 3C site could be left at the N-terminus of the complex-derived form; also called mature dimer; control activin A

In assay [1] the target is T1, Avi-tagged follistatin-288, biotinylated (UniProt P19883-2 30-317, biotin (on the Avi tag, by BirA)).
T1 construct: source: biotinylated with BirA enzyme, purified by reverse phase chromatography
In words: BLI; biotinylated Avi-tagged FST-288 immobilised on streptavidin biosensors; analytes in kinetic buffer (PBS, 0.1% bovine serum albumin, 0.02% Tween-20); 600 s association, 600 s dissociation; 30 °C. Conditions: both partners purified. On the technique in general: Biolayer interferometry detects binding as a change in optical thickness at a sensor tip.

The target in assay [2] is T2, cleaved pro-activin A complex (pro-mature complex) (human, UniProt P08476 311-426).
T2 sequence (P08476 whole entry, looked up): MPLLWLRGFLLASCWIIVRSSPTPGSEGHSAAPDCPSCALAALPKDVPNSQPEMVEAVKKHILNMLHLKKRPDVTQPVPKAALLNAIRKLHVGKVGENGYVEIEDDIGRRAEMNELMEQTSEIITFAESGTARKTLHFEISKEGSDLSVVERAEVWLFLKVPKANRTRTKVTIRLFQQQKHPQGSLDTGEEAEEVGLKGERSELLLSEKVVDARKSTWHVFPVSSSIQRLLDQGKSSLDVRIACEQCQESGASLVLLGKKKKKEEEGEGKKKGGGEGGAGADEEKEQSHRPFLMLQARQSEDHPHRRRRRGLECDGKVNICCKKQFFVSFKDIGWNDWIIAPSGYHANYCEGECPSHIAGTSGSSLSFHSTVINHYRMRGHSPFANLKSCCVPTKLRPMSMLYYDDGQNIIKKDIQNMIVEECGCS
Put plainly: cell-based or functional assay.

The target of assay [3] is B1. In words: cell-based or functional assay.

As usually defined, the Kd is a measure of binding affinity in units of concentration. Consider B1, for which the Kd in assay [1] was 0.209 nM.

B2: follistatin-288 (natural protein, UniProt P19883-2 30-317, looked up)
chain: GNCWLRQAKNGRCQVLYKTELSKEECCSTGRLSTSWTEEDVNDNTLFKWMIFNGGAPNCIPCKETCENVDCGPGKKCRMNKKNKPRCVCAPDCSNITWKGPVCGLDGKTYRNECALLKARCKEQPELEVQYQGRCKKTCRDVFCPGSSTCVVDQTNNAYCVTCNRICPEPASSEQYLCGNDGVTYSSACHLRKATCLLGRSIGLAYEGKCIKAKSCEDIQCTGGKKCLWDFKVGRGRCSLCDELCPDSKSDEPVCASDNATYASECAMKEAACSSGVLLEVKHSGSCN
As for B2, in assay [2], the “IC50 of FST-288 for inhibition of signalling by 60 pM pro-activin A complex; activin-inducible luciferase reporter in HEK293T cells” value worked out at 90 pM. For the same molecule, the “IC50 of FST-288 for inhibition of signalling by 60 pM mature activin A; activin-inducible luciferase reporter in HEK293T cells” value in assay [3] was found to be 81 pM.

The values are drawn from publication PMC4932183, “Structure and activation of pro-activin A” (Nature Communications, 2016).
